Consider one molecule from publication doi:10.1101/2024.04.05.588290, “An optical aptamer-based cytokine nanosensor detects macrophage activation by bacterial toxins”.

The data set deals with interleukin-6 (IL-6), human recombinant (Homo sapiens, UniProt P05231 30-212). In words: SWCNT near-infrared fluorescence quenching, (7,5) chirality; SWCNT complex, 5250 ng/mL IL-6, 1X PBS, 3 h; no response, p=0.65903; 0.5 mg/L SWCNT-ssDNA in 1X PBS (or 1X PBS + 10% FBS), 5250 ng/mL IL-6, 120 uL, triplicate, up to 180 min; pH and temperature not stated. As to conditions: protein: commercial; label: noncovalently adsorbed on SWCNT.
Sequence of interleukin-6 (IL-6), human recombinant (P05231 30-212): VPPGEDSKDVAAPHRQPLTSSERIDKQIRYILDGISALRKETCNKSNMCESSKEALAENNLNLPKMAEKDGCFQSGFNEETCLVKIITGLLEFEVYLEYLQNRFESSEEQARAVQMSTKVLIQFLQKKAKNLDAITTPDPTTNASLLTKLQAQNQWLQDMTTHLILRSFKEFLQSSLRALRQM

Regarding GTGTGTGTGTGTGTGTGTGTGTGTGTGTGT (ssDNA) [(GT)15], the binding result is “no binding”.
